Measured values taken from the supplement of paper PMC10567573.

B1: FAM50A (parent)
chain: HIFPASRWEPYDPEKKWDKYTIR
B2: LYSMD4 (parent)
chain: LLQRELAQEDSLNKLALQYGCKVA

Variants of: B1
Assay: protein stability index of a GFP-peptide fusion (GPS, HEK-293T) (PSI 1-6); higher = more stable
Settings: c terminus: native
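Also: lentivirally expressed fusions sorted by FACS into six bins by GFP to DsRed ratio, PSI derived from sequencing read proportions per bin multiplied by bin number.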

Which protein stability index does the source give for HIFPGSRWEPYDPEKKWDKYTIR [A5G] here?
Its protein stability index is 2.14.

For HIFPSSRWEPYDPEKKWDKYTIR [A5S], which protein stability index is on record?
Its protein stability index is 3.2.

Which protein stability index does the source give for HIFPAPRWEPYDPEKKWDKYTIR [S6P] here?
Its protein stability index is 4.97.

For HIFPAERWEPYDPEKKWDKYTIR [S6E], which protein stability index is on record?
Its protein stability index is 3.04.

With HIFPASRWEPYDPWKKWDKYTIR [E14W] as the variant, how does the protein stability index read?
Its protein stability index is 1.65.

For HIFPASRWEPYDPAKKWDKYTIR [E14A], which protein stability index is on record?
Its protein stability index is 2.66.

For HIFPASRWEPYDPYKKWDKYTIR [E14Y], which protein stability index is on record?
Its protein stability index is 2.68.

For HIFPASRWEPYDPQKKWDKYTIR [E14Q], which protein stability index is on record?
The protein stability index was 2.04.

With HIFPASRWEPYDPFKKWDKYTIR [E14F] as the variant, how does the protein stability index read?
Its protein stability index is 1.55.

With HIFQASRWEPYDPEKKWDKYTIR [P4Q] as the variant, how does the protein stability index read?
The protein stability index was 1.77.

With HIFNASRWEPYDPEKKWDKYTIR [P4N] as the variant, how does the protein stability index read?
Its protein stability index is 2.71.

With HIFPASRWEPYDPEKKWDDYTIR [K19D] as the variant, how does the protein stability index read?
Its protein stability index is 2.24.

With HIFPASRWEPYDPEKKWDNYTIR [K19N] as the variant, how does the protein stability index read?
The protein stability index was 2.52.

With WIFPASRWEPYDPEKKWDKYTIR [H1W] as the variant, how does the protein stability index read?
The protein stability index was 1.46.

With KIFPASRWEPYDPEKKWDKYTIR [H1K] as the variant, how does the protein stability index read?
Its protein stability index is 1.08.

With GIFPASRWEPYDPEKKWDKYTIR [H1G] as the variant, how does the protein stability index read?
The protein stability index was 3.23.

For NIFPASRWEPYDPEKKWDKYTIR [H1N], which protein stability index is on record?
Its protein stability index is 2.77.

With RIFPASRWEPYDPEKKWDKYTIR [H1R] as the variant, how does the protein stability index read?
The protein stability index was 2.34.

With HIFPASRWEPYDPEKKGDKYTIR [W17G] as the variant, how does the protein stability index read?
Its protein stability index is 2.43.

Which protein stability index does the source give for HIFPASRWEPYDPEKKEDKYTIR [W17E] here?
The protein stability index was 3.48.

For HIFPASRWEPYDPEKKTDKYTIR [W17T], which protein stability index is on record?
The protein stability index was 2.25.

With HIFPASRWRPYDPEKKWDKYTIR [E9R] as the variant, how does the protein stability index read?
The protein stability index was 2.43.

Which protein stability index does the source give for HIFPASRWKPYDPEKKWDKYTIR [E9K] here?
Its protein stability index is 1.68.

For HIFPASRTEPYDPEKKWDKYTIR [W8T], which protein stability index is on record?
The protein stability index was 4.03.

Which protein stability index does the source give for HIFPASRDEPYDPEKKWDKYTIR [W8D] here?
Its protein stability index is 3.54.

With HIFPASRNEPYDPEKKWDKYTIR [W8N] as the variant, how does the protein stability index read?
Its protein stability index is 3.88.

For HIFPASRWEPYDPEKKWDKYFIR [T21F], which protein stability index is on record?
Its protein stability index is 2.06.

For HIFPASRWEPYDPEKKWDKYNIR [T21N], which protein stability index is on record?
Its protein stability index is 2.54.

Which protein stability index does the source give for HIFPASRWEPYDPEKKWDKYKIR [T21K] here?
The protein stability index was 1.93.

With HIFPASRWEPADPEKKWDKYTIR [Y11A] as the variant, how does the protein stability index read?
Its protein stability index is 2.51.

Which protein stability index does the source give for HIFPASRWEPRDPEKKWDKYTIR [Y11R] here?
Its protein stability index is 4.26.

With HIFPASRWEPIDPEKKWDKYTIR [Y11I] as the variant, how does the protein stability index read?
Its protein stability index is 2.51.

With HIFPASTWEPYDPEKKWDKYTIR [R7T] as the variant, how does the protein stability index read?
Its protein stability index is 2.66.

For HIFPASNWEPYDPEKKWDKYTIR [R7N], which protein stability index is on record?
The protein stability index was 2.38.

Which protein stability index does the source give for HIFPASQWEPYDPEKKWDKYTIR [R7Q] here?
The protein stability index was 2.47.

With HIFPASKWEPYDPEKKWDKYTIR [R7K] as the variant, how does the protein stability index read?
Its protein stability index is 2.1.

Which protein stability index does the source give for HIFPASMWEPYDPEKKWDKYTIR [R7M] here?
Its protein stability index is 2.6.

With HIFPASRWEPYDPEKKWDKYTIG [R23G] as the variant, how does the protein stability index read?
The protein stability index was 2.59.

Which protein stability index does the source give for HIFPASRWEPYDPEKKWDKYTII [R23I] here?
Its protein stability index is 2.21.

For HIFPASRWEPYDPEKKWDKYTIE [R23E], which protein stability index is on record?
The protein stability index was 2.04.

For HIFPASRWEGYDPEKKWDKYTIR [P10G], which protein stability index is on record?
The protein stability index was 2.45.

With HIFPASRWEEYDPEKKWDKYTIR [P10E] as the variant, how does the protein stability index read?
Its protein stability index is 2.32.

For HIFPASRWEPYDPEKKWDKETIR [Y20E], which protein stability index is on record?
The protein stability index was 2.02.

With HIFPASRWEPYDPEKKWDKGTIR [Y20G] as the variant, how does the protein stability index read?
Its protein stability index is 2.16.

With HIFPASRWEPYDPEKKWDKWTIR [Y20W] as the variant, how does the protein stability index read?
The protein stability index was 2.96.

Which protein stability index does the source give for HIFPASRWEPYDPEKKWDKLTIR [Y20L] here?
The protein stability index was 2.26.

Which protein stability index does the source give for HIFPASRWEPYDTEKKWDKYTIR [P13T] here?
Its protein stability index is 2.3.

With HIFPASRWEPYDEEKKWDKYTIR [P13E] as the variant, how does the protein stability index read?
Its protein stability index is 1.86.

Which protein stability index does the source give for HIFPASRWEPYDMEKKWDKYTIR [P13M] here?
Its protein stability index is 2.53.

Which protein stability index does the source give for HIFPASRWEPYDFEKKWDKYTIR [P13F] here?
The protein stability index was 2.8.

For HIFPASRWEPYDPEKKWQKYTIR [D18Q], which protein stability index is on record?
Its protein stability index is 2.

For HIFPASRWEPYDPEKKWVKYTIR [D18V], which protein stability index is on record?
The protein stability index was 2.17.

With HIFPASRWEPYDPEKKWIKYTIR [D18I] as the variant, how does the protein stability index read?
Its protein stability index is 2.48.

For HIFPASRWEPYDPEKKWMKYTIR [D18M], which protein stability index is on record?
Its protein stability index is 1.92.

Which protein stability index does the source give for HTFPASRWEPYDPEKKWDKYTIR [I2T] here?
Its protein stability index is 2.38.

With HRFPASRWEPYDPEKKWDKYTIR [I2R] as the variant, how does the protein stability index read?
The protein stability index was 3.2.

Which protein stability index does the source give for HIFPASRWEPYDPEKKWDKYTYR [I22Y] here?
The protein stability index was 2.98.

With HIFPASRWEPYDPEKKWDKYTKR [I22K] as the variant, how does the protein stability index read?
The protein stability index was 3.3.

Which protein stability index does the source give for HIPPASRWEPYDPEKKWDKYTIR [F3P] here?
The protein stability index was 2.62.

For HISPASRWEPYDPEKKWDKYTIR [F3S], which protein stability index is on record?
The protein stability index was 2.79.

For HIVPASRWEPYDPEKKWDKYTIR [F3V], which protein stability index is on record?
Its protein stability index is 2.31.

For HIHPASRWEPYDPEKKWDKYTIR [F3H], which protein stability index is on record?
Its protein stability index is 1.96.

For HILPASRWEPYDPEKKWDKYTIR [F3L], which protein stability index is on record?
Its protein stability index is 2.63.

Which protein stability index does the source give for HIMPASRWEPYDPEKKWDKYTIR [F3M] here?
Its protein stability index is 1.74.

Which protein stability index does the source give for HIFPASRWEPYDPEHKWDKYTIR [K15H] here?
Its protein stability index is 1.45.

Which protein stability index does the source give for HIFPASRWEPYDPEAKWDKYTIR [K15A] here?
The protein stability index was 2.23.

With HIFPASRWEPYDPESKWDKYTIR [K15S] as the variant, how does the protein stability index read?
The protein stability index was 2.67.

With HIFPASRWEPYDPEFKWDKYTIR [K15F] as the variant, how does the protein stability index read?
Its protein stability index is 2.2.

For HIFPASRWEPYDPEPKWDKYTIR [K15P], which protein stability index is on record?
The protein stability index was 1.99.

For HIFPASRWEPYNPEKKWDKYTIR [D12N], which protein stability index is on record?
Its protein stability index is 2.08.

With HIFPASRWEPYQPEKKWDKYTIR [D12Q] as the variant, how does the protein stability index read?
Its protein stability index is 2.19.

Variants of: B2
Assay: as above
Settings: c terminus: a fixed tail appended

For LLQRELYQEDSLNKLALQYGCKVA [A7Y], which protein stability index is on record?
The protein stability index was 2.12.

For LLQRELWQEDSLNKLALQYGCKVA [A7W], which protein stability index is on record?
The protein stability index was 1.95.

With LLQRELDQEDSLNKLALQYGCKVA [A7D] as the variant, how does the protein stability index read?
Its protein stability index is 2.09.

Which protein stability index does the source give for LLQRELKQEDSLNKLALQYGCKVA [A7K] here?
Its protein stability index is 2.14.

Which protein stability index does the source give for LLQRELHQEDSLNKLALQYGCKVA [A7H] here?
Its protein stability index is 2.72.

For LLQRELRQEDSLNKLALQYGCKVA [A7R], which protein stability index is on record?
The protein stability index was 1.49.

For LLQRELMQEDSLNKLALQYGCKVA [A7M], which protein stability index is on record?
Its protein stability index is 2.77.

With LLQRELCQEDSLNKLALQYGCKVA [A7C] as the variant, how does the protein stability index read?
The protein stability index was 1.73.

For LLQRELVQEDSLNKLALQYGCKVA [A7V], which protein stability index is on record?
The protein stability index was 1.48.

With LLQRELQQEDSLNKLALQYGCKVA [A7Q] as the variant, how does the protein stability index read?
The protein stability index was 2.02.

Which protein stability index does the source give for LLQRELTQEDSLNKLALQYGCKVA [A7T] here?
The protein stability index was 1.87.

For LLQRELIQEDSLNKLALQYGCKVA [A7I], which protein stability index is on record?
Its protein stability index is 2.63.

For LLQRELEQEDSLNKLALQYGCKVA [A7E], which protein stability index is on record?
Its protein stability index is 1.8.

Which protein stability index does the source give for LLQRELFQEDSLNKLALQYGCKVA [A7F] here?
Its protein stability index is 2.73.

For LLQRELPQEDSLNKLALQYGCKVA [A7P], which protein stability index is on record?
The protein stability index was 1.97.

For LLQKELAQEDSLNKLALQYGCKVA [R4K], which protein stability index is on record?
The protein stability index was 2.82.

For LLQAELAQEDSLNKLALQYGCKVA [R4A], which protein stability index is on record?
Its protein stability index is 1.64.

Which protein stability index does the source give for LLQCELAQEDSLNKLALQYGCKVA [R4C] here?
Its protein stability index is 3.8.

With LLQGELAQEDSLNKLALQYGCKVA [R4G] as the variant, how does the protein stability index read?
Its protein stability index is 1.24.

For LLQNELAQEDSLNKLALQYGCKVA [R4N], which protein stability index is on record?
Its protein stability index is 2.04.

With LLQPELAQEDSLNKLALQYGCKVA [R4P] as the variant, how does the protein stability index read?
The protein stability index was 2.06.

With LLQHELAQEDSLNKLALQYGCKVA [R4H] as the variant, how does the protein stability index read?
The protein stability index was 1.56.

Which protein stability index does the source give for LLQYELAQEDSLNKLALQYGCKVA [R4Y] here?
The protein stability index was 3.28.

For LLQDELAQEDSLNKLALQYGCKVA [R4D], which protein stability index is on record?
Its protein stability index is 2.08.
